According to patent US11111296B2, “Compositions and methods for treating cardiac dysfunction” (THE BROAD INSTITUTE, INC., priority 2015, dated 2021):

B1: S100A7: RAGE ligand, cachexia-inducing; sequence NP_002954.2 (protein)
chain: MSNTQAERSIIGMIDMFHKYTRRDDKIEKPSLLTMMKENFPNFLSACDKKGTNYLADVFEKKDKNEDKKIDFSEFLSLLGDIATDYHKQSHGAAPCSGGSQ
B2: S100A8/9: RAGE ligand, cachexia-inducing (protein)
chain 1: MLTELEKALNSIIDVYHKYSLIKGNFHAVYRDDLKKLLETECPQYIRKKGADVWFKELDINTDGAVNFQEFLILVIKMGVAAHKKSHEESHKE
chain 2: MTCKMSQLERNIETIINTFHQYSVKLGHPDTLNQGEFKELVRKDLQNFLKKENKNEKVIEHIMEDLDTNADKQLSFEEFIMLMARLTWASHEKMHEGDEGPGHHHKPGLGEGTP
B3: S100B: RAGE ligand, non-cachexia-inducing (protein)
chain: SELEKAMVALIDVFHQYSGREGDKHKLKKSELKELINNELSHFLEEIKEQEVVDKVMETLDNDGDGECDFQEFMAFVAMVTTACHEFFEHE
B4: S100P: RAGE ligand, non-cachexia-inducing (protein)
chain: MTELETAMGMIIDVFSRYSGSEGSTQTLTKGELKVLMEKELPGFLQSGKDKDAVDKLLKDLDANGDAQVDFSEFIVFVAAITSACHKYFEKAGLK

Test system: myosin heavy chain in cells
Test: cachexia functional assay (levels of myosin heavy chain in treated cells)
Format: cell-based
Settings: for cachexia-inducing activity of RAGE ligands: FIG. 8
Excerpt: The compounds that are thus designed or selected may further be tested in an in vitro, in vivo, or ex vivo assays to determine if they regulate RAGE. Such assays are known to one skilled in the art. In some embodiments, the assay is a cachexia functional assay as described herein and further described in PCT/US2014/068631, which is incorporated herewith in its entirety.
In studies described herein below, a refined model of the cachectic signal was obtained (FIG. 2). Functional sites on the RAGE polypeptide were determined using a combination of experiments mapping binding interface(s) of anti-RAGE antibodies with RAGE polypeptide using hydrogen-deuterium exchange (HDEX) reactions and cachexia functional assays. As described elsewhere herein, results of the cachexia functional assay indicate whether a candidate agent (e.g., a particular anti-RAGE antibody) has cachexia-inhibitory or cachexia-inducing activity, as measured, for example, by levels of myosin heavy chain in cells treated with the candidate agent relative to a control or baseline myosin heavy chain level.

| Molecule | cachexia-inhibitory activity (levels of myosin heavy chain) (cells treated with various concentrations of FPS3 (FIG. 7B)) | cachexia-inducing activity of RAGE ligands |
| --- | --- | --- |
| CCCCCC(=Cc1ccccc1)CN(CCc1c[nH]c2ccccc12)C(=O)c1ccc(Cl)c([N+](=O)[O-])c1 [FPS3, reference compound] | had cachexia-inhibitory activity |  |
| B1 |  | cachexia-inducing |
| B2 |  | cachexia-inducing |
| B3 |  | non-cachexia-inducing |
| B4 |  | non-cachexia-inducing |
